According to PMC6615639, “A broadly neutralizing germline-like human monoclonal antibody against dengue virus envelope domain III” (PLoS Pathogens, 2019):

What was measured:
[1] = molecular target: T1, DENV-2 envelope protein domain III (DIII), fused with IgG1 Fc and a C-terminal Avi-tag (Dengue virus type 2, strain ; …); experiment: cell-based or functional assay
T1 chain: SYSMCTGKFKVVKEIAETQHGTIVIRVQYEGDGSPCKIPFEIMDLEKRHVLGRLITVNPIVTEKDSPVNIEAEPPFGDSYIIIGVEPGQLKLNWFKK

[2] = molecular target: T2, DENV-1 envelope protein domain III (DIII), fused with IgG1 Fc and a C-terminal Avi-tag (Dengue virus type 1, strain ; …, UniProt B6DXD2); experiment: cell-based or functional assay
[3] = molecular target: T3, DENV-4 envelope protein domain III (DIII), fused with IgG1 Fc and a C-terminal Avi-tag (Dengue virus type 4, strain ; …, UniProt P09866); experiment: cell-based or functional assay
[4] = molecular target: T4, DENV-3 envelope protein domain III (DIII), fused with IgG1 Fc and a C-terminal Avi-tag (Dengue virus type 3, strain ; …, UniProt Q99D35); experiment: cell-based or functional assay
[5] = molecular target: T1, DENV-2 envelope protein domain III …; experiment: SPR; details: both partners purified
[6] = molecular target: T2, DENV-1 envelope protein domain III …; experiment: SPR; details: both partners purified
[7] = molecular target: T3, DENV-4 envelope protein domain III …; experiment: SPR; details: both partners purified
[8] = molecular target: T4, DENV-3 envelope protein domain III …; experiment: SPR; details: both partners purified

B1: m366.6 scFv-Fc (scFv, V domains shown)
VH: QLQLQESGGGLVQPGGSLRLSCAASGFTFSSHSMNWIRQAPGKRLEWVSSISSSSSYIYYADSVRGRFTISRDNAKNSLYLQMDSLRAEDTAVYYCARYMAGIWTFDIWGQGTMVTVSS
VL: SYELTQPPSVSVAPGKTASISCGGDNIGRKSVHWFQQKPGQAPVLVLYDDSDRPSGIPARFSGSNSGNTATLTISGVEAGDEADYYCQVWARSSDLPNWVFGGGTKLTVL
notes: also called mAb m366.6
- other [1]: 2.4 µg/mL
- other [2]: 22 µg/mL
- other [3]: 0.36 µg/mL
- other [4]: 0.85 µg/mL
- Kd [5]: 0.29 nM
- koff [5]: 0.00025 s⁻¹
- kon [5]: 960000 M⁻¹ s⁻¹
- Kd [6]: 0.78 nM
- koff [6]: 0.00025 s⁻¹
- kon [6]: 320000 M⁻¹ s⁻¹
- Kd [7]: 1.9 nM
- koff [7]: 0.00062 s⁻¹
- kon [7]: 330000 M⁻¹ s⁻¹
- Kd [8]: 0.27 nM
- koff [8]: 0.00018 s⁻¹
- kon [8]: 660000 M⁻¹ s⁻¹
